Measurements published in article PMC10910794, “Toxoplasma sortilin interacts with secretory proteins and it is critical for parasite proliferation” (Parasites & Vectors, 2024).

T1: His-TgROP9 (Toxoplasma gondii, UniProt S8F3X8 1-353)
T1 chain: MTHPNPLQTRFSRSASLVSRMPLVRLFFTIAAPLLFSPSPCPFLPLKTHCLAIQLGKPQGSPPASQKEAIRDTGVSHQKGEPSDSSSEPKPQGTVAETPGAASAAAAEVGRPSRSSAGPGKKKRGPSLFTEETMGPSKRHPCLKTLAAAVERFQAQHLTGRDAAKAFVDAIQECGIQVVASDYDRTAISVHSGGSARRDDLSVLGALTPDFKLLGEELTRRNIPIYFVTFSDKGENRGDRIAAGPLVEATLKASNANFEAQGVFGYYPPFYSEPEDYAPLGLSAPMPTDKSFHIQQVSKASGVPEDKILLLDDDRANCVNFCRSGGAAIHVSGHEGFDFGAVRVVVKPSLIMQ

T2: His-TgSAG2 (Toxoplasma gondii)
T2 chain: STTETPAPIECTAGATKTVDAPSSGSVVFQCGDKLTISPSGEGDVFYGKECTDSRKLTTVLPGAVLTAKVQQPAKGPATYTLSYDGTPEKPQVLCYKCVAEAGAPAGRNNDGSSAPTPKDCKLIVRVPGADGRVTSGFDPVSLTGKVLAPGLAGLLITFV

T3: His-TgMIC3 (Toxoplasma gondii, UniProt A0A7J6KDB0 27-383)
T3 chain: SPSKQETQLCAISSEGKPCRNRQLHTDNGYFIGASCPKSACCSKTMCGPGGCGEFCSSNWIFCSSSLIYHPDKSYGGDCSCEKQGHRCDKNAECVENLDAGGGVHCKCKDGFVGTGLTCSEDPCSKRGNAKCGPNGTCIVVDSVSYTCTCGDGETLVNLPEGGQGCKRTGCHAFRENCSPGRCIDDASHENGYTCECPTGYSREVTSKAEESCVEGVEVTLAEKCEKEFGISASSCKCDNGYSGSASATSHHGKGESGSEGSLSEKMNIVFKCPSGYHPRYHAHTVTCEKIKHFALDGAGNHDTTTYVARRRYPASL

B1: GST-tagged recombinant sortilin protein (natural protein)
chain: MYTSRTPHGGLRRWPLSRSSVSAVASRVLSRSVAFHRRLASFLLSRKKTPLCALSSRPSGLQASSGVQTVTMAHSFARGRPPAAGRTLAVFLAFLAVLSPSLLPEFFSEDAQKRESSVLVANAASYANKKVSVSEVSFDSHIEDIQWCGTDHRTILLKTRRGRLYRSQDGGKSWTEITDLLKSSEAATGTVAVDSIIVSPVDKRVVLIVGSKRNHFISEDSAATFRRLKYKNTIHNFHFHPTRPKYAILSTWTDACYSGSGTASRAQSQQDCNHQLFYTRDLGRSFKLVADYVVQFSWGDKKLGNTDHIFFTQHRGRSGDQPRYGGWSKNVDLMYTPDFGATITRLVYRGNKFLLSNGYFFVAKVKDAAKQTVSLLVSTDGGKSFQMAKLPVEIEERSYTVLDTSEDAIMLHVNHGHDNKGDTGNVYISDAKGVRYSLSLPNNIRTSTGECEFDKVLSLEGVYLANFKDSVDSSASVDGGQQGDLEKLEEEIEEEAEGVQVDLEKKHKSVATRSRQEEVIRTVISFDKGGVWSYLKAPKVDSRGQKIDCPPDRCWLHLNGITRFSDFAPFYSVENAVGIIMGTGNVGSYLRPEKDEANTYLSRDGGVSWIEAHKGAFIYEMGDHGGLLVMADDTKKTNQVVFSWNEGQSWYDFELGAAPLFVDNIVIEPNASSVEFLLYGKREQDSAGVLFHLDFNALNQQQCKGIWAADSVSSDYETWSPSDGRAGGERCILGKHITYTRRKQTSECFNGRDFDRPKVSKVCPCTMEDYECEFGFTRAIGSTQCVATDAAAAAAATATGLAQFADESDAAAAAACTSSSFFYTSAYRKVPGDVCEGGWMPEKVAVPCPAHSPVSRGGKTVLLLLLFIVVVMVVINYLAKTGRLKKFFRNAGFDSFANVSYGLVGASAGGPGGWLDQEAGESRRGEELGERSKYEPELGFIEAEQDENEEDAPTLMNYGNAAGGQRTSGMSSRSPKPTEDFELDDSRPLFPSHVSSRETQGSSGLHPRSTSTENEPIPRLAPPRFDEDNVELL

Legend:
[1] = molecular target: T4, GST-Vps10 (Vps10 subdomain of T. gondii sortilin) (Toxoplasma gondii, UniProt A0A7J6KCY2); assay: bio-layer interferometry, biotinylated GST-Vps10 on SSA sensor; assay type: binding; settings: AF38469 at 100-500 nM diluted in DMSO; PBS, DMSO as negative control
T4 construct: gene TGRH88_014830; Vps10 subdomain (160-667 aa) of 1033-aa sortilin; GST-tagged from pGEX-4T-1, E. coli BL21 (DE3); tag kept; biotinylated with NHS-PEG12-biotin

His-TgROP9 = molecular target: T1, His-TgROP9; assay: BLI
His-TgSAG2 = molecular target: T2, His-TgSAG2; assay: BLI
His-TgMIC3 = molecular target: T3, His-TgMIC3; assay: BLI

| Molecule | bio-layer interferometry, biotinylated GST-Vps10 on SSA sensor [1] | Kd (His-TgROP9) [nM] | Kd (His-TgSAG2) [nM] | Kd (His-TgMIC3) [nM] |
| --- | --- | --- | --- | --- |
| Cc1cccc(NC(=O)c2ccc(C(F)(F)F)cc2C(=O)O)n1 [AF38469] | only the Vps10 subdomain could bind to AF38469 with high affinity | – | – | – |
| B1 | – | 0.963 | 915 | 0.847 |
